Assay results as given in patent JP2010189402A (dated 2010).
Where “and” joins values, the source holds several entries; their conditions need not be identical. Identical values can stand only once.

T1: ヒトCD20抗原 (human, UniProt P11836 1-297)
T1 sequence (looked up): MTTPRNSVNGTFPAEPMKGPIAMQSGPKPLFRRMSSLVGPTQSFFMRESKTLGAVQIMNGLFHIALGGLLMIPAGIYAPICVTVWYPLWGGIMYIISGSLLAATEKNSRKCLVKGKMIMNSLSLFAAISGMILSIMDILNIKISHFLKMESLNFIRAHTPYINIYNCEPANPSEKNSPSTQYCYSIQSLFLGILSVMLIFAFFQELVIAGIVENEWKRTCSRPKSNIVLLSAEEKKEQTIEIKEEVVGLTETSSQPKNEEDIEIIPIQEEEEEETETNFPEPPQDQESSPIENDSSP


target: T1, ヒトCD20抗原; assay: cell-based or functional assay

Row | Binder | CDC 傷害活性 (RC−K8細胞)
1 | 抗CD20キメラ抗体 1k1422 (antibody, V domains shown) VH: QVQLQQPGAELVKPGASVKMSCRASGYTFTNYNMHWIKQTPGQGLEWIGAIYPGSGDTSYNRKFKGKATLTADTSSSTAYMQFSSLTSADSAVYYCARFTYYYGGTYGAMDYWGQGTSVTVSL VL: QIVLTQSPPIMSASLGEEITLTCSASSRVSYMLWYQQKSGTSPKLLIYSTSNLASGVPSRFSGSGSGTFYSLTISSVEAEDAADYYCHQWTSNPCTFGGGTKLEIK | ~10 %
2 | 抗CD20キメラ抗体 1k0924 (antibody, V domains shown) VH: QVQLQQPGAELVKPGASVKMSCKASGYTFTSYNIHWVKQTPGQGLEWIGAIYPGNGDTSYNQKFKGKATLTSDKSSSTAYMQLSSLTSEDSAVYYCARMSTMITGFDYWGQGTTLTVSS VL: QIVLSQSPAILSASPGEKVTMTCRASSSVSYMHWYQQRPGSSPKPWIYATSNLASGVPARFSGSGSGTSYYFTISRVEAEDAATYYCQQWNSNPPTHGGGTKLEIK | ~25 %
3 | 抗CD20キメラ抗体 1k1736 (antibody, V domains shown) VH: QVQLQQPGAELVKPGASVKMSCKASGYTFTTYNLHWVKQTPGQGLEWIGGIYPGNGDTSYNQKFKVKATLTADKSSNTAYMQLSSLTSEDSAVYYCARWIYYGNYEGTLDYWGQGTSVTVSS VL: QIVLSQSPAILSSSPGEKVTMTCRASSSVSYMLWYQQKPGSSPEPWIYATSNLASGVPARFSGGGSGTSYSLTISRVEAEDAATYYCQQWTFNPPTFGGGTKLEIK | ~10 %

target: T1, ヒトCD20抗原; assay: Scatchard analysis, Raji cells

Row | Binder | binding result
4 | 抗ヒトCD20マウスモノクローナル抗体 1k1782 (antibody, V domains shown, Mouse monoclonal antibody from hybridoma; also called m1782) VH: QVQLQQSGAELAKPGASVKMSCKASGYTFTSYWMHWVKQRPGQGLEWIGYITPSTGYTDYNKKFKDKATLTADRSSSTAYMHLSSLTSEDSAVYYCARSGPYFDVWGAGTTVTVSS VL: DILLTQSPAILFVSPGERVSLSCRASQNIGTSIHWYQQRTNGSPRLLIKYASESFSGIPSRFSGSGSGTDFTLSINSVESEDIADYYCQQSNSWPFTFGSGTKLEIK | binds
5 | 抗ヒトCD20マウスモノクローナル抗体 1K1228 (antibody, V domains shown, Mouse monoclonal antibody from hybridoma; also called m1228) VH: QVQLQQPGAELVKPGASVKVSCKASGFTFTSYNLHWVKQTPGQGLVWIGAIYPGNGDTSYNQKFRGKATLTADISSSTAYMQLSSLTSEDSAVYYCARYYYGYDAMDYWGQGTSVTVSS VL: EIILTQSPTTMAASPGEKITITCSASSSISSYYLRWYQQKPGFSPKVLIYRTSNLASGVPARFSGSGSGTSYSLTIGTMEAEDVATYYCQQGNTVPLTFGSGTKLEIK | binds
6 | 抗ヒトCD20マウスモノクローナル抗体 1k1402 (antibody, V domains shown, Mouse monoclonal antibody from hybridoma; also called m1402) VH: QVQLQQPGAELVKPGASVKMSCKASGFTFTSYNMHWVKQTPGQGLEWIGGIYPGNGDTSYNQKFKGKATLTADKSSSTAYMQLSSLTSEDSAVYYCARFYYYGSMGAMDYWGQGTSVTVSS VL: QIVLSQSPAILSASPGEKVTMTCRASSSVSYMHWYQQKPGSSPKPWIYATSNLASGVPARFSGSGSGTSYSLTITRVEAEDAATYYCQQWTFNPPTFGAGTKLELK | binds
7 | 抗ヒトCD20マウスモノクローナル抗体 1k1712 (antibody, V domains shown, Mouse monoclonal antibody from hybridoma; also called m1712) VH: QVQLQQPGAELVKPGASVKMSCKASGFTFTSYNLHWVKQTPGQGLEWIGAIYPGSGDTSYNQQFKGKATLTADKSSNTAYMQLNSLTSEDSAVYCCARSAMISTGNWYFDYWGQGTTLTVSS VL: QIVLSQSPAILSASPGEKVTMTCRASSSVSYMDWYQQKPGSSPKPWIYATSNLASGVPARFSGSGSGTSYSLTISRVEAEDTATYYCQQWTFNPPTFGSGTKLEIK | binds
8 | ヒト化抗CD20モノクローナル抗体 hz1791-ss (antibody, V domains shown, also called ss; hz1791-ss32) VH: QIQLVQSGSELKKPGASVKVSCKASGYTFTNFGVNWVRQAPGKGLKWMGWINTYTGEPSYAQGFTGRFAFSLDASVSTAYLQISSLKAEDTATYFCTRRTNYYGTSYYYAMDYWGQGTTVTVSS VL: STVMTQSPDSLAVSLGERATINCKSSQSNSNDVAWYQQKPGQSPKVLIYFASNRYSGVPDRFSGSGYGTDFTLTISSLQAEDVAVYFCQQDYSSPLTFGAGTKLEIK | binds

target: T1, ヒトCD20抗原; assay: Scatchard analysis, Raji cells, FITC-labelled secondary antibody fluorescence

Row | Binder | Kd
9 | ヒト化抗CD20モノクローナル抗体 hz1791-ff (antibody, V domains shown, also called ff; hz1791-ff34) VH: QIQLVQSGSELKKPGASVKVSCKASGYTFTNFGVNWVKQAPGKGLKWMGWINTYTGEPSYADDFKGRFAFSLDASASTAYLQISSLKAEDMATYFCTRRTNYYGTSYYYAMDYWGQGTTVTVSS VL: STVMTQSPSFLSASVGDRVTITCKASQSVSNDVAWYQQKPGQSPKVLIYFASNRYTGVPDRFSGSGYGTDFTLTISSLQAEDVAVYFCQQDYSSPLTFGAGTKLEIK | < 9.5 nM
10 | ヒト化抗CD20モノクローナル抗体 hz1791-fv (antibody, V domains shown, also called fv; hz1791-fv10) VH: QIQLVQSGPELKKPGASVKISCKASGYTFTNFGVNWVKQAPGKGLKWMGWINTYTGEPSYADDFKGRFAFSLDASVSTAYLQISSLKAEDTSTYFCTRRTNYYGTSYYYAMDYWGQGTTVTVSS VL: STVMTQSPSFLSASVGDRVTITCKASQSVSNDVAWYQQKPGQSPKVLIYFASNRYTGVPDRFSGSGYGTDFTLTISSLQAEDVAVYFCQQDYSSPLTFGAGTKLEIK | < 9.5 nM
11 | ヒト化抗CD20モノクローナル抗体 hz1791-sf (antibody, V domains shown, also called sf; hz1791-sf43) VH: QIQLVQSGSELKKPGASVKVSCKASGYTFTNFGVNWVKQAPGKGLKWMGWINTYTGEPSYADDFKGRFAFSLDASASTAYLQISSLKAEDMATYFCTRRTNYYGTSYYYAMDYWGQGTTVTVSS VL: STVMTQSPDSLAVSLGERATINCKSSQSNSNDVAWYQQKPGQSPKVLIYFASNRYSGVPDRFSGSGYGTDFTLTISSLQAEDVAVYFCQQDYSSPLTFGAGTKLEIK | 13 nM and 9.5 nM
